US20060099689

B1: murine Caspase-3 (protein)
chain 1: SGIYLDSSYKMDYPEMGICIIINNKNFHKSTGMSSRSGTDVDAANLRETFMGLKYQVRNKNDLTREDILELMDSVSKEDHSKRSSFVCVILSHGDEGVIYGTNGPVELKKLTSFFRGDYCRSLTGKPKLFIIQACRGTELDCGIETD
chain 2: SGTDEEMACQKIPVEADFLYAYSTAPGYYSWRNSKDGSWFIQSLCSMLKLYAHKLEFMHILTRVNRKVATEFESFSLDSTFHAKKQIPCIVSMLTKELYFYH
B2: murine caspase 7 (protein)
chain 1: AKPDRSSIISSILLKKKRNASAGPVRTGRDRVPTYLYRMDFQKMGKCIIINNKNFDKATGMDVRNGTDKDAGALFKCFQNLGFEVTVHNDCSCAKMQDLLRKASEEDHSNSACFACVLLSHGEEDLIYGKDGVTPIKDLTAHFRGDRCKTLLEKPKLFFIQACRGTELDDGIQAD
chain 2: ANPRNKIPVEADFLFAYSTVPGYYSWRNPGKGSWFVQALCSILNEHGKDLEIMQILTRVNDRVARHFESQSDDPRFNEKKQIPCMVSMLTKELYFSR

Key:
[1] = molecular target: H-GST-DEVD/S-mLIF, P09056
[2] = molecular target: fusion protein of GST and mLIF where the DEVD site is preceded by a GPGS sequence (L1: GPGSDEVD), P09056
[3] = molecular target: fusion protein of GST and mLIF with only the DEVD site in the linker (L0: DEVD), P09056
[4] = molecular target: the 20 fusion proteins of the formula H-GST-DEVD/X-mLIF, where X is any of the possible 20 amino acids

Row | Protein | processing of the fusion protein (gel, FIG. 3b) (GST-C-hIFNα) | amount of enzyme sufficient to process 10 microgram of fusion protein [1] | time needed for processing [1] | amount of enzyme sufficient to process 10 microgram of fusion protein (H-GST-DEVD/mLIF, P09056) | percent of fusion protein processed (50 ng enzyme, 45 minutes) (H-GST-DEVD/mLIF, P09056) | time needed for processing (H-GST-DEVD/mLIF, P09056) | percent of fusion protein processed (2 microgram enzyme on 10 microgram substrate) (MBP-L0-hIFNalpha) | percent of fusion product processed (densitometric scanning of the gel) [2] | processing yield (densitometric scanning of the gel) [3] | cleavage of P1′ variants (gel, FIG. 6) [4] | efficiency of cleavage (H-GST-DEVD/mLIF, P09056)
1 | B1 | Caspase-3 on the other hand gave a high yield of processing even after only 45 minutes of incubation | as little as 50 ng of enzyme is sufficient to process 10 microgram of protein | the reaction was finished after 45 minutes when using Caspase-3 | as little as 50 ng of enzyme is sufficient to process 10 microgram of protein | An amount of 50 ng is sufficient to process >90% of 10 microgram of a GST-mLIF fusion protein | the reaction was finished after 45 minutes when using Caspase-3 | 2 microgram of caspase 3 is needed to process only 50% of 10 microgram of MBP-L0-hIFNalpha | 90% of the fusion product containing L1 was processed | only 10% processing yield was seen under these conditions when using the L0 linker | all amino acids in the P1′ position could be processed by Caspase-3 | 
2 | B2 |  |  |  |  |  |  |  |  |  |  | the murine caspase 7 was not as active as the murine caspase 3 and more enzyme needed to be added to obtain the same efficiency of cleavage
